The target of series [1] is T1, Tat ARM peptide (amino acids 45-58) K50A.
T1 chain: ISYGRAKRRQRRRP

Series [2] has as its target histones purified from calf thymus.
Series [3] addresses T2, Tat ARM peptide (amino acids 45-58) K50, 51AA.
T2 chain: ISYGRAARRQRRRP

Series [4] has as its target T3, Tat ARM peptide (amino acids 45-58) K51A.
T3 chain: ISYGRKARRQRRRP

Series [5] concerns the target recombinant GST-IκBα.
Series [6] addresses full-length synthetic Tat protein (72 amino acids), unmodified.
For series [7], the target named is T4, Tat ARM peptide carrying an acetyl group at position 50.
T4 chain: ISYGRKKRRQRRRP

The target in series [8] is T5, unmodified Tat ARM peptide (amino acids 45-58).
T5 chain: ISYGRKKRRQRRRP

The target of series [9] is T6, Tat ARM peptide (amino acids 45-58) monomethylated at K51.
T6 chain: ISYGRKKRRQRRRP

B1: recombinant Set9 (Upstate) (protein)
chain: MDSDDEMVEEAVEGHLDDDGLPHGFCTVTYSSTDRFEGNFVHGEKNGRGKFFFFDGSTLEGYYVDDALQGQGVYTYEDGGVLQGTYVDGELNGPAQEYDTDGRLIFKGQYKDNIRHGVCWIYYPDGGSLVGEVNEDGEMTGEKIAYVYPDERTALYGKFIDGEMIEGKLATLMSTEEGRPHFELMPGNSVYHFDKSTSSCISTNALLPDPYESERVYVAESLISSAGEGLFSKVAVGPNTVMSFYNGVRITHQEVDSRDWALNGNTLSLDEETVIDVPEPYNHVSKYCASLGHKANHSFTPNCIYDMFVHPRFGPIKCIRTLRAVEADEELTVAYGYDHSPPGKSGPEAPEWYQVELKAFQATQQK
On to B1, for which the results for the “in vitro methylation with radiolabeled SAM; MALDI-TOF” value in series [1], in [4] and in series [7] were “mutation of K50 alone had no effect”, “Methylation by Set9 was abrogated when K51 or both lysines were mutated” and “No methylation signal was observed”, respectively. In addition, the “in vitro methylation with radiolabeled SAM, autoradiography” value in [2] was “Set9 also methylated purified histones, predominantly histone H3, a known substrate of Set9”; in [5] it was “methylation by Set9 was not observed with another recombinant protein, GST-IκBα”; in series [6] it was “The Tat protein was methylated in response to increasing amounts of Set9 enzyme”. Also, in series [3], the “in vitro methylation with radiolabeled SAM” value is listed as “Methylation by Set9 was abrogated when K51 or both lysines were mutated”. Also, the “MALDI-TOF mass shift after methylation reaction” value in series [8] was “a shift of 14 Da was detected in the methylated ARM peptide, corresponding to the addition of a single methyl group”. In addition, the “radioactive in vitro methylation of short Tat peptides” value in [8] was “Methylation was observed with one peptide (45-58 amino acids) corresponding to the arginine-rich motif (ARM) of Tat”.

B2: recombinant GST-p300 HAT (protein)
chain: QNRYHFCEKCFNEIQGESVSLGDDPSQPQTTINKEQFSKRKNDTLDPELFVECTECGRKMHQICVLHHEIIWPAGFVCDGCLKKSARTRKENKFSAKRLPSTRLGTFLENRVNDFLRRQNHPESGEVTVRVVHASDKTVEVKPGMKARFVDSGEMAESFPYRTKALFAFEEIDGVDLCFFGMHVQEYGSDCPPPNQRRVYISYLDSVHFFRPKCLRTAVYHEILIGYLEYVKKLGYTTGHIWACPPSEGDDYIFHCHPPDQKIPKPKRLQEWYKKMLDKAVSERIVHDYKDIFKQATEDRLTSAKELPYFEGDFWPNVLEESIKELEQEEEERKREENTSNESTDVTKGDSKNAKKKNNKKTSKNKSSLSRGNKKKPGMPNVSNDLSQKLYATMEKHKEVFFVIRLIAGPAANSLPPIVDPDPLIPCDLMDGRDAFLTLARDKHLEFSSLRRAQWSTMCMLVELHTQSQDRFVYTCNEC
For B2, the “in vitro acetylation with 14C-AcCoA, autoradiography” value in series [9] and in series [8] was “Acetylation by p300 occurred regardless of the methylation status of K51” each time.

Source of the values: patent US20110318377.
